B1: biotinylated bovine FI (enzyme)
chain 1: EDNFRKRGKSKAVKKSEAHHAPEASLSKETEASSEVKPTSTQDTSQKDFVDKKCLTEKHTHLSCNKVFCQPWQKCIDGTCLCKLPYQCPKNGTRVCSTNGKSYSTYCQQKSFECYRPEAKFLKSGACTGGGQFSVSLSNGKQDSEGIVAVKLADLDTKMFVCGDSWSITEANVACIDRGFQLGALDTHRRDPDPNSAECLHVRCRGLETSLAECTFTKGVHNSEGLAGVVCYTESAAPPKKDSFQCVNGKRIPQKKACDGVNDCVDKSDELCCKDCRGEGFLCKSGVCIPKQYKCNGELDCITGEDEVGCEETGHPEIKEAAEMLTADMDAERKFTKSFLPKLSCGVKNNMHI
chain 2: VVGGKPAKMGEFPWQMAIKEGDKIHCGGIYIGGCWILTAAHCVRISRMHRYQIWTSFTDWLRPGFQTVVHSVNRIIIHENYNGTTYQNDIALIEMKKRPNEKECVLSKSIPACVPWSPYLFQPNDKCIVSGWGREKDNQKVYSLRWGEVHLINNCSEFYPGRYFEKEMQCAGTDDGSIDACKGDSGGPLVCQDVNNVTYVWGVVSWGENCGKSEFPGVYTKVANYFDWISQHVGRSLISQHNI
modifications: biotin (EZ-link NHS-biotin; sites not stated) | biotin (EZ-link NHS-biotin; sites not stated)

Legend:
[1] = target: T1, PmSLP-1^95-318 SERp (Pasteurella multocida strain 36950); test: BLI
[2] = target: T1, PmSLP-1^95-318 SERp; test: BLI; kinetic fit
[3] = target: B1; test: BLI; kinetic fit
[4] = target: B1; test: BLI

Binder | koff [1] [s⁻¹] | Kd [2] [nM] | Kd [3] [nM] | koff [4] [s⁻¹]
B1 | 0.008 | 30 |  | 
PmSLP-1^15-318 (domain or fragment) MEKRTVTIPQAQKVAEKPALTIQTVVTSPTTPIKAPSLAPTIDTAPKQNPVPTAQITATLPAEPVKVPVLIPEVNKTLLETSTNPVKDSYNKDAVFTYELIANPDADYSDQKLILKKEISYIKLNLGINQDNKNAPSYIFNLLDDNVYYGFYRDTQDMNRIENKYTYAFKKEAENFDNLQKFNATYEGQFWFSSIDTPNVPTVARAFLTYNNGRVDGEILAKHWNEKLFQITGFDNNPRKVEIFPTVEYLPNSGTRLTKGATSPHRFQMDLHFINSTNGEKNKYLVGQGSTEQYWGVLGMEKKQELALVPR |  |  | 18 | 0.0059
